± gives the standard deviation.

A short description of the data set: protein stability index of a GFP-peptide fusion (GPS, HEK-293T) (PSI 1-6); higher = more stable. As to conditions: c terminus: a fixed tail appended.
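Also: 24-mer peptide tiles fused after GFP, lentivirally expressed, FACS-sorted into six equal bins by GFP/DsRed ratio, decoded by Illumina sequencing, PSI is the read-weighted mean bin number.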

As to LGNEYPKLHYPELYVLKGGYKEFF [CDC25A], the protein stability index was determined as 2.02 ± 0.23 (treatment: DMSO) and 2.01 ± 0.39 (treatment: MLN4924 1 uM, 8 h).

As for LGNFFTTLRVVHHKFHSQRHGSKK [TMEM120A], the protein stability index came to 2.39 ± 0.21 (treatment: DMSO) and 2.54 ± 0.64 (treatment: MLN4924 1 uM, 8 h).

As for LHEVLTEVVPIHGRGNFPTLEITL [TENT5C], the protein stability index is 2.73 ± 0.56 (treatment: DMSO) and 2.53 ± 0.53 (treatment: MLN4924 1 uM, 8 h).

For the sequence LHPVQKVILNYPSPWDQEERPAQR [TRAF3IP2], the protein stability index (treatment: DMSO) worked out at 3.4 ± 0.37 and the protein stability index (treatment: MLN4924 1 uM, 8 h) is 3.66 ± 0.34.

In the case of LHREVRSTPLTATPGGRGDMKYGI [VTI1B], the protein stability index was found to be 3.72 ± 0.24 (treatment: DMSO) and 3.67 ± 0.12 (treatment: MLN4924 1 uM, 8 h).

With LIAEVMGEDIPEKIKDEVHPEVKC [C8orf76], the protein stability index was determined as 4.51 ± 0.58 (treatment: DMSO) and 4.31 ± 0.14 (treatment: MLN4924 1 uM, 8 h).

As for LICKYDFIMLSCVQLQRIPLSAVY [TPRG1], the protein stability index runs as follows: (treatment: DMSO) 3.2 ± 0.37; (treatment: MLN4924 1 uM, 8 h) 3.36 ± 0.83.

As to LIERERSALGPNVTKITLESFLAW [ZC3H15], the protein stability index reads like this: (treatment: DMSO) 2.19 ± 0.47; (treatment: MLN4924 1 uM, 8 h) 2.49 ± 0.14.

For the sequence LIGDLIGHSSSVEMFLYFEDHGLV [WDR41], the protein stability index was found to be 2.57 ± 0.51 (treatment: DMSO) and 2.83 ± 0.81 (treatment: MLN4924 1 uM, 8 h).

For LIHQHEKVIYLDDDVIVQGDIQEL [GLT8D2], the protein stability index (treatment: DMSO) worked out at 3.6 ± 0.26 and the protein stability index (treatment: MLN4924 1 uM, 8 h) is 3.59 ± 0.22.

Turning to LKERFAFLFNSELLSDVRFVLGKG [BTBD1], the protein stability index reads like this: (treatment: DMSO) 2.53 ± 0.23; (treatment: MLN4924 1 uM, 8 h) 2.64 ± 0.41.

Consider LKISPVTLKEAYVQKLVKVCTDTD [TENT5C], for which the protein stability index is, setting by setting: (treatment: DMSO) 2.94 ± 0.16; (treatment: MLN4924 1 uM, 8 h) 2.91 ± 0.14.

Regarding LKNNETLVQHGVKPQEIVQVEIFS [IQUB], the protein stability index is, setting by setting: (treatment: DMSO) 2.82 ± 0.54; (treatment: MLN4924 1 uM, 8 h) 2.98 ± 0.7.

In the case of LLAPGEQSLPCTERKPAATARLSR [KISS1], the protein stability index reads like this: (treatment: DMSO) 4.46 ± 0.37; (treatment: MLN4924 1 uM, 8 h) 4.72 ± 0.18.

As to LLASVPSNPNGNGGFMGYSAENIP [CRY1], the protein stability index is 3.52 ± 0.45 (treatment: DMSO) and 3.41 ± 0.23 (treatment: MLN4924 1 uM, 8 h).

LLDDGQQASPYHPGSCGAGAPSPG [ELF3]: the protein stability index runs as follows: (treatment: DMSO) 4.71 ± 0.1; (treatment: MLN4924 1 uM, 8 h) 4.57 ± 0.39.

In turn, LLEGQDAKMAGIGIREASSGGGGS [KRT15] displayed a protein stability index (treatment: DMSO) of 5.09 ± 0.14 and a protein stability index (treatment: MLN4924 1 uM, 8 h) of 4.87 ± 0.2.

As for LLFVRGAGNCPECGTPLRKSNFRV [MNAT1], the protein stability index is, setting by setting: (treatment: DMSO) 2.2 ± 0.19; (treatment: MLN4924 1 uM, 8 h) 2.6 ± 0.32.

In turn, LLISSCDWMAAMFGGPFVESSTRE [RHOBTB2] showed a protein stability index (treatment: DMSO) of 2.68 ± 0.52 and a protein stability index (treatment: MLN4924 1 uM, 8 h) of 2.37 ± 0.48.

Regarding LLLDCGAEVNAVDNEGNSALHIIV [FEM1B], the protein stability index reads like this: (treatment: DMSO) 2.39 ± 0.45; (treatment: MLN4924 1 uM, 8 h) 2.24 ± 0.42.

In the case of LLLHRGAGKEAMTSDGYTALHLAA [RIPK4], the protein stability index is, setting by setting: (treatment: DMSO) 2.33 ± 0.25; (treatment: MLN4924 1 uM, 8 h) 2.22 ± 0.48.

The sequence LLRSPPPPSARHRAHPPQRPASSG [KCNA3] registered a protein stability index (treatment: DMSO) of 4.42 ± 0.18 and a protein stability index (treatment: MLN4924 1 uM, 8 h) of 4.62 ± 0.33.

With LLSVDAFAAPSPATTASPAKVDSS [SNAP91], the protein stability index came to 4.86 ± 0.21 (treatment: DMSO) and 4.87 ± 0.07 (treatment: MLN4924 1 uM, 8 h).

For the sequence LLTGETEADPEMIKRAEDYGPVEV [CLPTM1], the protein stability index by setting is: (treatment: DMSO) 5.02 ± 0.3; (treatment: MLN4924 1 uM, 8 h) 5.14 ± 0.11.

As for LLTWTEPPVRPAGYLLSFHTPGGQ [TNXB], the protein stability index came to 2.42 ± 0.23 (treatment: DMSO) and 2.64 ± 0.29 (treatment: MLN4924 1 uM, 8 h).

For the sequence LMCFDPDTDKWIQKAPMTTVRGLH [KLHL13], the protein stability index reads like this: (treatment: DMSO) 2.57 ± 0.18; (treatment: MLN4924 1 uM, 8 h) 2.64 ± 0.23.

On to LMKHQTNISELKRTFLETSTDTAV [EPB41L3], for which the protein stability index runs as follows: (treatment: DMSO) 3.68 ± 0.79; (treatment: MLN4924 1 uM, 8 h) 3.92 ± 0.38.

LMLAGMGLHYIAFRKVKQMHLNFM [DNAJC4]: the protein stability index reads like this: (treatment: DMSO) 2.45 ± 0.82; (treatment: MLN4924 1 uM, 8 h) 2.41 ± 0.33.

LMSDLRRKRTAHERAKELYSSGEF [INTS4]: the protein stability index is, setting by setting: (treatment: DMSO) 3.54 ± 0.19; (treatment: MLN4924 1 uM, 8 h) 3.65 ± 0.1.

On to LMSGALAVNQKIDRESLCGASTSC [PCDHGC5], for which the protein stability index stood at 3.67 ± 0.4 (treatment: DMSO) and 3.6 ± 0.095 (treatment: MLN4924 1 uM, 8 h).

Take LNRPGPAPLSSRKHVLYVEHRHLN [TCF25]: the protein stability index (treatment: DMSO) came out at 3.14 ± 0.28 and the protein stability index (treatment: MLN4924 1 uM, 8 h) was found to be 2.8 ± 0.15.

With LPACEFEMGGSEGIVESIQIMKEG [NETO1], the protein stability index turned out to be 4.92 ± 0.26 (treatment: DMSO) and 4.74 ± 0.3 (treatment: MLN4924 1 uM, 8 h).

On to LPCDLPKVVSRAENLSVPVIGALL [LPCAT4], for which the protein stability index (treatment: DMSO) is 2.29 ± 0.37 and the protein stability index (treatment: MLN4924 1 uM, 8 h) is 2.27 ± 0.31.

Take LPDVEPAAFLALLRFLYSDEVQIG [BTBD1]: the protein stability index was found to be 2.16 ± 0.43 (treatment: DMSO) and 2.28 ± 0.28 (treatment: MLN4924 1 uM, 8 h).

Take LPDVSLGRYAYVRGGGDPWTNGSG [MCOLN1]: the protein stability index was 2.51 ± 0.43 (treatment: DMSO) and 2.87 ± 0.22 (treatment: MLN4924 1 uM, 8 h).

For the sequence LPHPKSMLQATAEANNLAAAASAK [ATL3], the protein stability index was 4.86 ± 0.27 (treatment: DMSO) and 5.07 ± 0.19 (treatment: MLN4924 1 uM, 8 h).

Values taken from the supplement of paper PMC10567573.
